In US6284879A, “Transport associated protein splice variants” (The General Hospital Corporation, priority 1998, dated 2001):

Assays:
[1] = molecular target: T1, TAP1/TAP2 heterodimer (human); experiment: cell-based or functional assay
T1 chain 1: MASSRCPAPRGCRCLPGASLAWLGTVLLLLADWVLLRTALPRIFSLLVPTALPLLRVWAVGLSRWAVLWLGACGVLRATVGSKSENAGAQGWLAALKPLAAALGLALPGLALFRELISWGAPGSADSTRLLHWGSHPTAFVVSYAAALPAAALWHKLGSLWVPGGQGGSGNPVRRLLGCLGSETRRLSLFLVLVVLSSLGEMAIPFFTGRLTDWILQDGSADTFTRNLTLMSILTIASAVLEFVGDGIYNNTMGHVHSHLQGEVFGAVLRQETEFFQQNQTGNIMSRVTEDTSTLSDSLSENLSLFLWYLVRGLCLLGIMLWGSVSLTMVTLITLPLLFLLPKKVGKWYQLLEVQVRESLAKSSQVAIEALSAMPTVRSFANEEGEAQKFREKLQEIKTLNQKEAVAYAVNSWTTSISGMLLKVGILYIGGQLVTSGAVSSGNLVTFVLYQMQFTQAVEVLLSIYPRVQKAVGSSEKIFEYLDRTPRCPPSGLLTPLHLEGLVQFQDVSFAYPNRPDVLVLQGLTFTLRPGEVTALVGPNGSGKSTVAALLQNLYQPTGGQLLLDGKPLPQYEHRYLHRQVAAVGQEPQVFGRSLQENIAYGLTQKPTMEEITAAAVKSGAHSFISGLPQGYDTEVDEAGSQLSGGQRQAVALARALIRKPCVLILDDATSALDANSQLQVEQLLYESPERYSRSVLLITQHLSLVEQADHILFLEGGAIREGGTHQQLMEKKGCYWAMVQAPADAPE
T1 chain 2: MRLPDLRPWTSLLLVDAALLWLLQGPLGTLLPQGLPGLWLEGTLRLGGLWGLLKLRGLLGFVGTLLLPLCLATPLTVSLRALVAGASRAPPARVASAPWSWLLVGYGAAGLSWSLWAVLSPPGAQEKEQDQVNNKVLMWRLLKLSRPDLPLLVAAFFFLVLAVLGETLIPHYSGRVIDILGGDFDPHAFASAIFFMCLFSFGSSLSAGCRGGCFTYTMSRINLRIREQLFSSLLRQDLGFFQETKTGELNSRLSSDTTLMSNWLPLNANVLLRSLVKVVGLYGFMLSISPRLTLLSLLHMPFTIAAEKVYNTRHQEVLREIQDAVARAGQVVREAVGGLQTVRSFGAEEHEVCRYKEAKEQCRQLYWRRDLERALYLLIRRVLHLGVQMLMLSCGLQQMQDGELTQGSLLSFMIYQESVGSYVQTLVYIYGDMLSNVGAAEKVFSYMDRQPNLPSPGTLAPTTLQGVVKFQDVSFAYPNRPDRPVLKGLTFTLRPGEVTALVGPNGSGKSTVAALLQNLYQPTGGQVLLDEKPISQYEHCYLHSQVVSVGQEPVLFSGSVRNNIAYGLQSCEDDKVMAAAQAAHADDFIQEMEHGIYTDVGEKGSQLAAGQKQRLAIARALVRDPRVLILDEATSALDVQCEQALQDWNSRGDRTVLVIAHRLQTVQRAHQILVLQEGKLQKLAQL

[2] = molecular target: T2, TAP1/TAP2iso heterodimer (human); experiment: cell-based or functional assay
T2 chain 1: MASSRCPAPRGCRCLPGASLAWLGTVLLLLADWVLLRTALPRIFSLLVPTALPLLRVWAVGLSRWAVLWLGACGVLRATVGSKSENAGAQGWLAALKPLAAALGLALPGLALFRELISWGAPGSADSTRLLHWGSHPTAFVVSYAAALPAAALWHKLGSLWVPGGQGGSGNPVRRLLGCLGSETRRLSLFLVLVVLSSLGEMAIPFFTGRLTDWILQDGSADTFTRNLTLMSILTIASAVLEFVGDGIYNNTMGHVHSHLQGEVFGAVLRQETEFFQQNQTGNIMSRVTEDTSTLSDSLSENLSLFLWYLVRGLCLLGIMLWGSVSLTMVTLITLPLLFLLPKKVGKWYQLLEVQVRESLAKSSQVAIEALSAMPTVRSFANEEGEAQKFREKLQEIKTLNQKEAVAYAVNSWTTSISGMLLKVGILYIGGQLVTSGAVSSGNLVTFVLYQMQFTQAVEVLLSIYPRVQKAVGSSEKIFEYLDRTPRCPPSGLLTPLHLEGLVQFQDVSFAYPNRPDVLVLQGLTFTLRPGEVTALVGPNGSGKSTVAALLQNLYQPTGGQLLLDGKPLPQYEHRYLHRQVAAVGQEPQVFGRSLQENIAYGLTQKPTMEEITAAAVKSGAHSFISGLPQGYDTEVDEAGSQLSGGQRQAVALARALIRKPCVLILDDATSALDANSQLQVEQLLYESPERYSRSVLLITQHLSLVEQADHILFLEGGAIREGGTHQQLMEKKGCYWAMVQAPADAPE
T2 chain 2: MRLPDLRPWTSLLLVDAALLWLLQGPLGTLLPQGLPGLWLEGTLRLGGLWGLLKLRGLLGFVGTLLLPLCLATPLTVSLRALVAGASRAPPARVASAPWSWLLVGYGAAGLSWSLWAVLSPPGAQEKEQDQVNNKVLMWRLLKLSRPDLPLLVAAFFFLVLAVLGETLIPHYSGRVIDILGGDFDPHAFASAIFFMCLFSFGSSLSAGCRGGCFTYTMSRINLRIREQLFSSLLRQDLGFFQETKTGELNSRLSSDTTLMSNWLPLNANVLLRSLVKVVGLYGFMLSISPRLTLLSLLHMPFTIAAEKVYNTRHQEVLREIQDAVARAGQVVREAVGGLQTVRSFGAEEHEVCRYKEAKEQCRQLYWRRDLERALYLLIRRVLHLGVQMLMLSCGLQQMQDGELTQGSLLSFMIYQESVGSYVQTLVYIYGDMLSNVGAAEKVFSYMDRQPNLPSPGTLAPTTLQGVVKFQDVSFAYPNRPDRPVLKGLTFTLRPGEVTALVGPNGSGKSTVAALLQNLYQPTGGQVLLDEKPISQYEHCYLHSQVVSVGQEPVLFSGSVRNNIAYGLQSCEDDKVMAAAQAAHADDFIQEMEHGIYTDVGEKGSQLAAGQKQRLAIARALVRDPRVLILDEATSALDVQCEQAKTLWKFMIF

[3] = test system: HLA class I molecules in T2 cells; experiment: HLA class I maturation, endo H sensitivity, pulse-chase in transfected T2 cells; assay type: cell-based, human; details: expressed with TAP1 in T2 cells, relative to untransfected T2 cells
Description: A preferred method of measuring the rate at which MHC class I antigen complexes exit the ER is through the quantification of MHC class I proteins of the Golgi apparatus sensitive to endoglycosidase H (endo H). Glycosylation of MHC class I proteins in the Golgi apparatus results in an increase in their molecular mass and an increase in resistance of MHC class I-linked glycans to endo H. By [^35 S]methionine pulse-labeling TAP- or TAPiso-expressing cell cultures and chasing with unlabeled methionine at various times, the rate of MHC class I maturation in the ER can be gauged by observing differences in endo H sensitivity, e.g., compared with a TAP-deficient cell line such as T2.
High density cells (1×10^8 cells/ml) were labeled for 15 minutes in the presence of 500 μCi [^35 S]methionine (Amersham), and then chased at the indicated times in the presence of 10 mM unlabeled methionine.
Cells were lysed in an ice-cold lysis buffer, and lysates were incubated overnight at 4° C. with protein A Sepharose beads (Pharmacia) and normal rabbit serum (1:200 dilution). The beads were removed by centrifugation and the resulting supernatant was incubated for 12 hours at 4° C. with protein A beads and monoclonal antibody W6/32 (American Type Culture Collection (ATCC) accession no. HB 95), which recognizes HLA class I molecules. […]

[4] = test system: HLA class I (A2) on T2 cells; experiment: restoration of surface expression of HLA class I (A2) on transfected T2 cells, flow cytometry; assay type: cell-based, human; details: T2 cells transfected with the named cDNAs; in words
Description: Plasmid DNAs were prepared using MAXI-PREP kits (Qiagen). TAP1- and TAP2-deficient T2 cells (donated by P. Cresswell, Howard Hughes Medical Institute, Yale University) (1-2×10^7 cells/ml) were transfected by electroporation with 10 μg of TAP1 and TAP2 or TAP2iso linear plasmid DNA in a 0.4-cm cuvette at 260 V and 960 μF. Subcloning and selection of transfectants were performed by culturing in the presence of hygromycin (250 μg/ml) or histidinol ([…]) for the PREP 4 and PREP8 vectors, respectively.
Immune complexes were detected with fluorescein isothiocyanate-conjugated goat anti-mouse IgG antibodies (Coulter, Hialeah, Fla.) and an Epics Elite flow cytometer (Coulter).
T2 cells were transfected with TAP1 cDNA in combination with TAP2 or TAPiso cDNAs as described above.

Molecule	IC50 of inhibition of transport of 125I-labeled Peptide … [1]	IC50 of inhibition of transport of 125I-labeled Peptide … [2]	HLA class I maturation as reflected in decreasing endo H sensitivity [3]	surface expression of HLA/MHC class I [4]
RRYQNSTEL [unlabeled Peptide RRYQNSTEL]	~150 nM	~150 nM	–	–
RGFFYTPKA [Peptide RGFFYTPKA]	300 nM	110 nM	–	–
TAP2iso: TAP2 splice variant lacking exon 11 and containing exon 12; 653 amino acids (protein) MRLPDLRPWTSLLLVDAALLWLLQGPLGTLLPQGLPGLWLEGTLRLGGLWGLLKLRGLLGFVGTLLLPLCLATPLTVSLRALVAGASRAPPARVASAPWSWLLVGYGAAGLSWSLWAVLSPPGAQEKEQDQVNNKVLMWRLLKLSRPDLPLLVAAFFFLVLAVLGETLIPHYSGRVIDILGGDFDPHAFASAIFFMCLFSFGSSLSAGCRGGCFTYTMSRINLRIREQLFSSLLRQDLGFFQETKTGELNSRLSSDTTLMSNWLPLNANVLLRSLVKVVGLYGFMLSISPRLTLLSLLHMPFTIAAEKVYNTRHQEVLREIQDAVARAGQVVREAVGGLQTVRSFGAEEHEVCRYKEAKEQCRQLYWRRDLERALYLLIRRVLHLGVQMLMLSCGLQQMQDGELTQGSLLSFMIYQESVGSYVQTLVYIYGDMLSNVGAAEKVFSYMDRQPNLPSPGTLAPTTLQGVVKFQDVSFAYPNRPDRPVLKGLTFTLRPGEVTALVGPNGSGKSTVAALLQNLYQPTGGQVLLDEKPISQYEHCYLHSQVVSVGQEPVLFSGSVRNNIAYGLQSCEDDKVMAAAQAAHADDFIQEMEHGIYTDVGEKGSQLAAGQKQRLAIARALVRDPRVLILDEATSALDVQCEQAKTLWKFMIF	–	–	increasing HLA class I maturation	no effect
